Results reported in paper PMC8844116.

B1: Flag-RAGE wild type (LV-Flag-RAGE-wt, wild-type ctRAGE) [mouse] / mitogen-activated protein kinase kinase 3 (MKK3), endogenous in mouse hippocampus and HT22 cells [mouse (endogenous in hippocampus and in HT22)] (parent)
chain 1: GQNITARIGEPLVLSCKGAPKKPPQQLEWKLNTGRTEAWKVLSPQGGPWDSVARILPNGSLLLPATGIVDEGTFRCRATNRRGKEVKSNYRVRVYQIPGKPEIVDPASELTASVPNKVGTCVSEGSYPAGTLSWHLDGKLLIPDGKETLVKEETRRHPETGLFTLRSELTVIPTQGGTHPTFSCSFSLGLPRRRPLNTAPIQLRVREPGPPEGIQLLVEPEGGIVAPGGTVTLTCAISAQPPPQVHWIKDGAPLPLAPSPVLLLPEVGHEDEGTYSCVATHPSHGPQESPPVSIRVTETGDEGPAEGSVGESGLGTLALALGILGGLGVVALLVGAILWRKRQPRREERKAPESQEDEEERAELNQSEEAEMPENGAGGP
chain 2: MESPAASPPASLPQTKGKSKRKKDLRISCVSKPPVSNPTPPRNLDSRTFITIGDRNFEVEADDLVTISELGRGAYGVVEKVRHAQSGTIMAVKRIRATVNTQEQKRLLMDLDINMRTVDCFYTVTFYGALFREGDVWICMELMDTSLDKFYRKVLEKNMKIPEDILGEIAVSIVRALEHLHSKLSVIHRDVKPSNVLINKEGHVKMCDFGISGYLVDSVAKTMDAGCKPYMAPERINPELNQKGYNVKSDVWSLGITMIEMAILRFPYESWGTPFQQLKQVVEEPSPQLPADQFSPEFVDFTSQCLRKNPAERMSYLELMEHPFFTLHKTKKTDIAAFVKEILGEDS

Variants of: B1
Test: co-immunoprecipitation (IP: Flag-RAGE, IB: MKK3), optical density of blot
Conditions: with mitogen-activated protein kinase kinase 3 (MKK3), HT22 cells with RAGE-shRNA knockdown, high glucose, n = 3, parent: 6, read off a plot
With chain 1 GQNITARIGEPLVLSCKGAPKKPPQQLEWKLNTGRTEAWKVLSPQGGPWDSVARILPNGSLLLPATGIVDEGTFRCRATNRRGKEVKSNYRVRVYQIPGKPEIVDPASELTASVPNKVGTCVSEGSYPAGTLSWHLDGKLLIPDGKETLVKEETRRHPETGLFTLRSELTVIPTQGGTHPTFSCSFSLGLPRRRPLNTAPIQLRVREPGPPEGIQLLVEPEGGIVAPGGTVTLTCAISAQPPPQVHWIKDGAPLPLAPSPVLLLPEVGHEDEGTYSCVATHPSHGPQESPPVSIRVTETGDEGPAEGSVGESGLGTLALALGILGGLGVVALLVGAILWAAAAPRREERKAPESQEDEEERAELNQSEEAEMPENGAGGP [chain 1 R340A K341A R342A Q343A] the response (fold change to HG + RAGE-shRNA group) was 1.6.

Same assay, conditions: with mitogen-activated protein kinase kinase 3 (MKK3), hippocampus of db/db mice with LV-RAGE-shRNA, n = 3, parent: 3, read off a plot
For chain 1 GQNITARIGEPLVLSCKGAPKKPPQQLEWKLNTGRTEAWKVLSPQGGPWDSVARILPNGSLLLPATGIVDEGTFRCRATNRRGKEVKSNYRVRVYQIPGKPEIVDPASELTASVPNKVGTCVSEGSYPAGTLSWHLDGKLLIPDGKETLVKEETRRHPETGLFTLRSELTVIPTQGGTHPTFSCSFSLGLPRRRPLNTAPIQLRVREPGPPEGIQLLVEPEGGIVAPGGTVTLTCAISAQPPPQVHWIKDGAPLPLAPSPVLLLPEVGHEDEGTYSCVATHPSHGPQESPPVSIRVTETGDEGPAEGSVGESGLGTLALALGILGGLGVVALLVGAILWAAAAPRREERKAPESQEDEEERAELNQSEEAEMPENGAGGP [chain 1 R340A K341A R342A Q343A], the response (fold change to db/db + RAGE-shRNA group) was 1.4.

Variants of: B1
Test: co-immunoprecipitation (IP: MKK3, IB: Flag-RAGE), optical density of blot
Conditions: with mitogen-activated protein kinase kinase 3 (MKK3), HT22 cells with RAGE-shRNA knockdown, high glucose, n = 3, parent: 6.8, read off a plot
In the case of chain 1 GQNITARIGEPLVLSCKGAPKKPPQQLEWKLNTGRTEAWKVLSPQGGPWDSVARILPNGSLLLPATGIVDEGTFRCRATNRRGKEVKSNYRVRVYQIPGKPEIVDPASELTASVPNKVGTCVSEGSYPAGTLSWHLDGKLLIPDGKETLVKEETRRHPETGLFTLRSELTVIPTQGGTHPTFSCSFSLGLPRRRPLNTAPIQLRVREPGPPEGIQLLVEPEGGIVAPGGTVTLTCAISAQPPPQVHWIKDGAPLPLAPSPVLLLPEVGHEDEGTYSCVATHPSHGPQESPPVSIRVTETGDEGPAEGSVGESGLGTLALALGILGGLGVVALLVGAILWAAAAPRREERKAPESQEDEEERAELNQSEEAEMPENGAGGP [chain 1 R340A K341A R342A Q343A], the response (fold change to HG + RAGE-shRNA group) is reported as 1.8.

Same assay, conditions: with mitogen-activated protein kinase kinase 3 (MKK3), hippocampus of db/db mice with LV-RAGE-shRNA, n = 3, parent: 3.4, read off a plot
In the case of chain 1 GQNITARIGEPLVLSCKGAPKKPPQQLEWKLNTGRTEAWKVLSPQGGPWDSVARILPNGSLLLPATGIVDEGTFRCRATNRRGKEVKSNYRVRVYQIPGKPEIVDPASELTASVPNKVGTCVSEGSYPAGTLSWHLDGKLLIPDGKETLVKEETRRHPETGLFTLRSELTVIPTQGGTHPTFSCSFSLGLPRRRPLNTAPIQLRVREPGPPEGIQLLVEPEGGIVAPGGTVTLTCAISAQPPPQVHWIKDGAPLPLAPSPVLLLPEVGHEDEGTYSCVATHPSHGPQESPPVSIRVTETGDEGPAEGSVGESGLGTLALALGILGGLGVVALLVGAILWAAAAPRREERKAPESQEDEEERAELNQSEEAEMPENGAGGP [chain 1 R340A K341A R342A Q343A], the response (fold change to db/db + RAGE-shRNA group) is reported as 1.9.
